Assay results as given in publication PMC5645467, “Three-dimensional context rather than NLS amino acid sequence determines importin α subtype specificity for RCC1” (Nature Communications, 2017).
Positions count from the first letter of the chain named. In names and notes the source's numbering stands.

T1: GST-ΔIBB-importin α3 (human, UniProt O00629 59-521)
T1 construct: human importin α3 lacking the N-terminal IBB domain; also called GST-tagged importin α3 (lacking the IBB); source: E. coli BL21(DE3) AI or BL21(DE3), pGEX-6P, purified (glutathione resin); not shown: GST, N-terminal, kept
T1 sequence (looked up): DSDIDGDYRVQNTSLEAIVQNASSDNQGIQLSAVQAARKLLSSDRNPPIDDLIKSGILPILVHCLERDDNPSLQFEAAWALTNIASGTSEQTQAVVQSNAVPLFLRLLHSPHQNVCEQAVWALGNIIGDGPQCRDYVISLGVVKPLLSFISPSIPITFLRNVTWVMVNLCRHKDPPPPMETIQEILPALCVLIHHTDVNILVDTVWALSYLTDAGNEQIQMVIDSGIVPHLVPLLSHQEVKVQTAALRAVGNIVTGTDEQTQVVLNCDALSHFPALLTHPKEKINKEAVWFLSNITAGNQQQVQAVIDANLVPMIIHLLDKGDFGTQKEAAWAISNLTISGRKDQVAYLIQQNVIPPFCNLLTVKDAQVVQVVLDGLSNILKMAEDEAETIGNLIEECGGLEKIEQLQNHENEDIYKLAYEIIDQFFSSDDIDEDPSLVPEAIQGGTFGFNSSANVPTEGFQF

T2: ΔIBB-Kap60 (co-expressed with yeast GST-RCC1) (Saccharomyces cerevisiae, UniProt Q02821 66-542)
T2 construct: yeast importin α Kap60 lacking the N-terminal IBB domain; the methods say ΔIBB-Kap60; source: E. coli BL21-AI, co-expressed with yeast GST-RCC1, purified as complex (glutathione beads, PreScission, SEC)
T2 sequence (looked up): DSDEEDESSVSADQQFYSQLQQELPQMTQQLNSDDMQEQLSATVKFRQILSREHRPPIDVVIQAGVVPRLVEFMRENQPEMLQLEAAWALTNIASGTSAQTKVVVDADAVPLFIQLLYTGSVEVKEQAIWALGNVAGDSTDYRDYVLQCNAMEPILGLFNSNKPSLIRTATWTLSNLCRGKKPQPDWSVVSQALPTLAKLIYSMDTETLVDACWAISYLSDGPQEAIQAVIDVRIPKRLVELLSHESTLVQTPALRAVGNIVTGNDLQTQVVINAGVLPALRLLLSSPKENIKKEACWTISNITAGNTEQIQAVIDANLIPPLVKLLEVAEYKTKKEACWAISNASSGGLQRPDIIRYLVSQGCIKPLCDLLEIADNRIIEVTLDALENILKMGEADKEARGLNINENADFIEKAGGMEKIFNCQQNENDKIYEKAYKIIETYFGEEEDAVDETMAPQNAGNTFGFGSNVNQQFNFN

B1: Δ5-RCC1 (domain or fragment, human, UniProt P18754 6-421, looked up)
chain: IAKRRSPPADAIPKSKKVKVSHRSHSTEPGLVLTLGQGDVGQLGLGENVMERKKPALVSIPEDVVQAEAGGMHTVCLSKSGQVYSFGCNDEGALGRDTSVEGSEMVPGKVELQEKVVQVSAGDSHTAALTDDGRVFLWGSFRDNNGVIGLLEPMKKSMVPVQVQLDVPVVKVASGNDHLVMLTADGDLYTLGCGEQGQLGRVPELFANRGGRQGLERLLVPKCVMLKSRGSRGHVRFQDAFCGAYFTFAISHEGHVYGFGLSNYHQLGTPGTESCFIPQNLTSFKNSTKSWVGFSGGQHHTVCMDSEGKAYSLGRAEYGRLGLGEGAEEKSIPTLISRLPAVSSVACGASVGYAVTKDGRVFAWGMGTNYQLGTGQDEDAWSPVEMMGKQLENRVVLSVSSGGQHTVLLVKDKEQS
notes: human RCC1 (RCC1α) with the first five residues deleted; source: E. coli BL21(DE3) AI or BL21(DE3), purified
B2: yRCC1 (yeast RCC1, cleaved from GST, in the purified Kap60:yRCC1 complex) (natural protein, Saccharomyces cerevisiae (strain S288C))
chain: MVKRTVATNGDASGAHRAKKMSKTHASHIINAQEDYKHMYLSVQPLDIFCWGTGSMCELGLGPLAKNKEVKRPRLNPFLPRDEAKIISFAVGGMHTLALDEESNVWSWGCNDVGALGRDTSNAKEQLKDMDADDSSDDEDGDLNELESTPAKIPRESFPPLAEGHKVVQLAATDNMSCALFSNGEVYAWGTFRCNEGILGFYQDKIKIQKTPWKVPTFSKYNIVQLAPGKDHILFLDEEGMVFAWGNGQQNQLGRKVMERFRLKTLDPRPFGLRHVKYIASGENHCFALTKDNKLVSWGLNQFGQCGVSEDVEDGALVTKPKRLALPDNVVIRSIAAGEHHSLILSQDGDLYSCGRLDMFEVGIPKDNLPEYTYKDVHGKARAVPLPTKLNNVPKFKSVAAGSHHSVAVAQNGIAYSWGFGETYAVGLGPFEDDTEVPTRIKNTATQDHNIILVGCGGQFSVSGGVKLSDEDAEKRADEMDD
notes: Saccharomyces cerevisiae RCC1 homolog Prp20p, amplified from a genomic library of strain S288C; also called Prp20p; source: E. coli BL21-AI, co-expressed with ΔIBB-Kap60, cleaved off glutathione beads with PreScission Protease, SEC; not shown: GST, N-terminal, cleaved
B3: Δ10-RCC1 (domain or fragment, human, UniProt P18754 11-421, looked up)
chain: SPPADAIPKSKKVKVSHRSHSTEPGLVLTLGQGDVGQLGLGENVMERKKPALVSIPEDVVQAEAGGMHTVCLSKSGQVYSFGCNDEGALGRDTSVEGSEMVPGKVELQEKVVQVSAGDSHTAALTDDGRVFLWGSFRDNNGVIGLLEPMKKSMVPVQVQLDVPVVKVASGNDHLVMLTADGDLYTLGCGEQGQLGRVPELFANRGGRQGLERLLVPKCVMLKSRGSRGHVRFQDAFCGAYFTFAISHEGHVYGFGLSNYHQLGTPGTESCFIPQNLTSFKNSTKSWVGFSGGQHHTVCMDSEGKAYSLGRAEYGRLGLGEGAEEKSIPTLISRLPAVSSVACGASVGYAVTKDGRVFAWGMGTNYQLGTGQDEDAWSPVEMMGKQLENRVVLSVSSGGQHTVLLVKDKEQS
notes: human RCC1 (RCC1α) lacking the entire minor NLS box; source: E. coli BL21(DE3) AI or BL21(DE3), purified
B4: RCC1 (human, wild type, free protein) (natural protein, UniProt P18754 1-421, looked up)
chain: MSPKRIAKRRSPPADAIPKSKKVKVSHRSHSTEPGLVLTLGQGDVGQLGLGENVMERKKPALVSIPEDVVQAEAGGMHTVCLSKSGQVYSFGCNDEGALGRDTSVEGSEMVPGKVELQEKVVQVSAGDSHTAALTDDGRVFLWGSFRDNNGVIGLLEPMKKSMVPVQVQLDVPVVKVASGNDHLVMLTADGDLYTLGCGEQGQLGRVPELFANRGGRQGLERLLVPKCVMLKSRGSRGHVRFQDAFCGAYFTFAISHEGHVYGFGLSNYHQLGTPGTESCFIPQNLTSFKNSTKSWVGFSGGQHHTVCMDSEGKAYSLGRAEYGRLGLGEGAEEKSIPTLISRLPAVSSVACGASVGYAVTKDGRVFAWGMGTNYQLGTGQDEDAWSPVEMMGKQLENRVVLSVSSGGQHTVLLVKDKEQS
notes: human RCC1, predominant isoform RCC1α, synthetic gene; also called free RCC1; WT RCC1; source: E. coli BL21(DE3) AI or BL21(DE3), purified
B5: RCC1 (human, cleaved from GST, in the purified importin α3:RCC1 complex) (natural protein, UniProt P18754 1-421, looked up)
chain: B4 chain
notes: human RCC1, predominant isoform RCC1α, synthetic gene; also called RCC1α; human RCC1; source: E. coli BL21-AI, co-expressed with ΔIBB-importin α3, cleaved off glutathione beads with PreScission Protease, SEC; not shown: GST, N-terminal, cleaved
B6: GST-RCC1 (full-length human RCC1, wild type) (natural protein, UniProt P18754 1-421, looked up)
chain: B4 chain
notes: human RCC1, predominant isoform RCC1α, synthetic gene (GenScript); β-propeller printed as residues 30–421; Used in the syringe for ITC (methods say GST-RCC1); also called full length GST-RCC1; WT GST-RCC1; source: E. coli BL21(DE3) AI or BL21(DE3), pGEX-6P, glutathione resin; not shown: GST, N-terminal, kept
B7: RCC1-K21A (natural protein, human, UniProt P18754 1-421, looked up)
chain: B4 chain with K21A
notes: human RCC1 (RCC1α) with K21A; also called P2 mutant; source: E. coli BL21(DE3) AI or BL21(DE3), purified
B8: RCC1-R9A/K21A (natural protein, human, UniProt P18754 1-421, looked up)
chain: B4 chain with R9A, K21A
notes: human RCC1 (RCC1α) with R9A and K21A; also called P2/P2′ double mutant; source: E. coli BL21(DE3) AI or BL21(DE3), purified
B9: RCC1-R9A (natural protein, human, UniProt P18754 1-421, looked up)
chain: B4 chain with R9A
notes: human RCC1 (RCC1α) with R9A; also called P2′ mutant; source: E. coli BL21(DE3) AI or BL21(DE3), purified
B10: RCC1-S11E (natural protein, human, UniProt P18754 1-421, looked up)
chain: B4 chain with S11E
notes: human RCC1 (RCC1α) with the phospho-mimetic S11E; also called phospho-mimetic RCC1-S11E; source: E. coli BL21(DE3) AI or BL21(DE3), purified
B11: ΔIBB-importin α3 (as used for ITC) (domain or fragment)
chain: not shown
modifications: Limits not given; taken from the ΔIBB-importin α3 entity of PDB 4UAE (Met + 420 residues, starting VQNTS), which fits the expected complex MW of ~91.2 kDa. A construct running to 521 is possible.

Experiments:
Settings in all cases: both partners purified
GST-ΔIBB-importin α3 = molecular target: T1, GST-ΔIBB-importin α3; experiment: pull-down; purified GST-ΔIBB-importin α3 or GST-ΔIBB-Kap60 (1 µM) pre-incubated with RCC1/yRCC1 (0.75 µM) ~60 min at 4 °C, then bound to glutathione beads, washed three times, eluted with 25 mM reduced glutathione; SDS-PAGE, Coomassie, quantified in triplicate, WT = 100%
[1] = molecular target: T2, ΔIBB-Kap60 (co-expressed with yeast …); experiment: SEC-SAXS; Kap60:yRCC1 complex at 5.0 mg ml^-1 on Superose 12 10/300 GL; 20 mM Tris-HCl pH 7.5, 150 mM NaCl, 5% glycerol, 3 mM BME; frames 710–750
[2] = molecular target: untagged ΔIBB-importin α3 (co-expressed with GST-RCC1) (human, UniProt O00629 1-521, Limits not given; taken from the ΔIBB-importin α3 entity of PDB 4UAE, which fits the expected complex MW of ~91.2 kDa. The 5TBK entity lists the full-length sequence although the IBB was deleted.); experiment: SAXS; purified importin α3:RCC1 complex in GF buffer, 3.5–7.5 mg ml^-1, physiological salt
[3] = molecular target: B11; experiment: ITC; nano-ITC, 20 °C; GST-RCC1 (300 µM) injected in 2.0 µl increments into 195 µl of ΔIBB-importin α3 or α1 (100 µM); 20 mM Tris-HCl pH 8.0, 150 mM NaCl, 5 mM BME, 0.1 mM PMSF; single set of binding sites model; triplicate
[4] = molecular target: B6; experiment: as above

reduction of binding relative to WT RCC1 (GST-ΔIBB-importin α3) [%] | Binder | further results
~10 | B1 | 
 | B2 | stoichiometry N [1]: 1
~60 | B3 | 
 | B4 | stoichiometry N (GST-ΔIBB-importin α3): 1
 | B5 | stoichiometry N [2]: 1
 | B6 | stoichiometry N [3]: < 1
25 | B7 | 
~85 | B8 | 
25 | B9 | 
~10 | B10 | 
 | B11 | Kd [4]: 620 ± 100 nM
